US20230220084A1
Changes are numbered by the printed parent chain. Several values for one entry are separate records, joined by “and”; a condition that tells them apart may be missing. Identical values can stand only once.

B1: 16B08 hybridoma supernatant antibody (antibody, from a related filing, V domains shown)
VH: EVQLQESGPGLVQPSQSLSITCTVSGFSLTNYGLHWVRQSPGKGLEWLGVIWSGGKTDYNTPFKSRLSISKDISKNQVFFKMNSLQPNDTAIYFCAKYDYDDSLDYWGQGTSVTVSS
VL: DIQMNQSPSSLSASLGDTIAITCHASQNINFWLSWYQQKPGNIPKLLIYEASNLHTGVPSRFSGSGSGTRFTLTISSLQPEDIATYYCQQSHSYPLTFGQGTKLEIK
B2: 15A10 hybridoma supernatant antibody (antibody, from a related filing, V domains shown)
VH: EVQLQESGAELVRSGASIKLSCAASAFNIKDYFIHWVRQRPDQGLEWIGWIDPENDDTEYAPKFQDKATMTADTSSNTAYLQLSSLTSADTAVYYCNALWSRGGYFDYWGQGTTLTVSS
VL: EVLLTQSPAIIAASPGEKVTITCSARSSVSYMSWYQQKPGSSPKIWIYGISKLASGVPARFSGSGSGTYFSFTINNLEAEDVATYYCQQRSYYPFTFGSGTKLEIK
B3: F3′-1304 (bispecific antibody, part only; not given: Fc and unrelated binding arm, not shown: another chain or arm of the molecule; a dimerising Fc or GST; small tags and cut ends)
scFv: DIQMTQSPSSLSASVGDRVTITCHASQNINFWLSWYQQKPGKIPKLLIYEASNLHTGVPSRFSGSGSGTRFTLTISSLQPEDIATYYCQQSHSYPLTFGCGTKLEIKGGGGSGGGGSGGGGSGGGGSQLQLQESGPGLVKPSETLSLTCTVSGFSLTNYGLHWIRQPPGKCLEWIGVIWSGGKTDYNPSLKSRVTISKDTSKNQFSLKLSSVQAADTAVYYCAKYDYDDSLDYWGQGTLVTVSS
B4: Murine F3′-9F11 (bispecific antibody, part only; not given: format, linker, Fc, other arm, V domains shown, not shown: a dimerising Fc or GST)
VH: EVQLQESGGGLVQPGGSRKLSCAASGFTFNSFGMHWVRQAPEKGLEWVAFISSGSTSIYYANTVKGRFTISRDNPKNTLFLQMTSLRSEDTAMYYCARDGYPTGGAMDYWGQGTSVTVSS
VL: DIKMTQSPSSMYASLGERVTITCKASQDIYNYLSWFQLKPGKSPRPLIYRANILVSGVPSKFSGSGSGQDYSLTINSLEYEDLGIYYCLQFDAFPFTFGSGTKLEIK
B5: F3′-1295 (bispecific antibody, part only; not given: Fc and unrelated binding arm, not shown: another chain or arm of the molecule; a dimerising Fc or GST)
scFv: QLQLQESGPGLVKPSETLSLTCTVSGFSLTNYGLHWIRQPPGKCLEWIGVIWSGGKTDYNPSLKSRVTISKDTSKNQFSLKLSSVQAADTAVYYCAKYDYDDSLDYWGQGTLVTVSSGGGGSGGGGSGGGGSGGGGSDIQMTQSPSSLSASVGDRVTITCHASQNINFWLSWYQQKPGKIPKLLIYEASNLHTGVPSRFSGSGSGTRFTLTISSLQPEDIATYYCQQSHSYPLTFGCGTKLEIK
B6: AB0010 (bispecific antibody, part only; not given: constant domains, Fc, unrelated scFv, V domains shown, not shown: another chain or arm of the molecule; a dimerising Fc or GST)
VH: QLQLQESGPGLVKPSETLSLTCTVSGFSLTNYGLHWIRQPPGKGLEWIGVIWSGGKTDYNPSLKSRVTISKDTSKNQFSLKLSSVQAADTAVYYCAKYDYDDSLDYWGQGTLVTVSS
VL: B1 VL with N5T, L15V, T18R, I19V, A20T, N42K, I43A, Q100G
B7: AB0185 (bispecific antibody, part only; not given: Fc, unrelated binder arm, linkers, not shown: another chain or arm of the molecule; a dimerising Fc or GST; small tags and cut ends)
scFv: DIQMTQSPSSLSASVGDRVTITCKASQDIYNYLSWFQQKPGKAPKPLIYRANILVSGVPSRFSGSGSGQDYTFTISSLQPEDIATYYCLQFDAFPFTFGCGTKLEIKGGGGSGGGGSGGGGSGGGGSEVQLVESGGGVVQPGGSLRLSCAASGFTFNSFGMHWVRQAPGKCLEWVAFISSGSTSIYYANTVKGRFTISRDNSKNTLYLQMNSLRAEDTAVYYCARDGYPTGGAMDYWGQGTSVTVSS
B8: AB0189 (bispecific antibody, part only; not given: Fc, unrelated binder arm, linkers, not shown: another chain or arm of the molecule; a dimerising Fc or GST; small tags and cut ends)
scFv: B7 scFv with Q3K, F73L, S158A
B9: AB0186 (bispecific antibody, part only; not given: Fc, unrelated binder arm, linkers, not shown: another chain or arm of the molecule; a dimerising Fc or GST; small tags and cut ends)
scFv: B7 scFv with S158A
B10: AB0191 (bispecific antibody, part only; not given: Fc, unrelated binder arm, linkers, not shown: another chain or arm of the molecule; a dimerising Fc or GST; small tags and cut ends)
scFv: EVQLVESGGGVVQPGGSLRLSCAASGFTFNSFGMHWVRQAPGKCLEWVAFISSGSTSIYYANTVKGRFTISRDNSKNTLYLQMNSLRAEDTAVYYCARDGYPTGGAMDYWGQGTSVTVSSGGGGSGGGGSGGGGSGGGGSDIQMTQSPSSLSASVGDRVTITCKASQDIYNYLSWFQQKPGKAPKPLIYRANILVSGVPSRFSGSGSGQDYTFTISSLQPEDIATYYCLQFDAFPFTFGCGTKLEIK
B11: AB0192 (bispecific antibody, part only; not given: Fc, unrelated binder arm, linkers, not shown: another chain or arm of the molecule; a dimerising Fc or GST; small tags and cut ends)
scFv: B10 scFv with S31A
B12: AB0195 (bispecific antibody, part only; not given: Fc and unrelated binding arm, not shown: another chain or arm of the molecule; a dimerising Fc or GST)
scFv: B10 scFv with S31A, Q143K, F213L
B13: F3′-1292 (bispecific antibody, part only; not given: Fc and unrelated binding arm, not shown: another chain or arm of the molecule; a dimerising Fc or GST)
scFv: B5 scFv with A88N
B14: F3′-1296 (bispecific antibody, part only; not given: Fc and unrelated binding arm, not shown: another chain or arm of the molecule; a dimerising Fc or GST)
scFv: B5 scFv with A88N, K97R
B15: F3′-1297 (bispecific antibody, part only; not given: Fc and unrelated binding arm, not shown: another chain or arm of the molecule; a dimerising Fc or GST; small tags and cut ends)
scFv: B5 scFv with A88N, I180A
B16: F3′-1306 (bispecific antibody, part only; not given: Fc and unrelated binding arm, not shown: another chain or arm of the molecule; a dimerising Fc or GST; small tags and cut ends)
scFv: B3 scFv with I43A, A215N
B17: AB0188 (bispecific antibody, part only; not given: Fc, unrelated binder arm, linkers, not shown: another chain or arm of the molecule; a dimerising Fc or GST; small tags and cut ends)
scFv: B7 scFv with Q3K, F73L

Biological target: cynomolgus CLEC12A expressed on RMA cells (cynomolgus monkey)
Sequence (chain, as listed by the source): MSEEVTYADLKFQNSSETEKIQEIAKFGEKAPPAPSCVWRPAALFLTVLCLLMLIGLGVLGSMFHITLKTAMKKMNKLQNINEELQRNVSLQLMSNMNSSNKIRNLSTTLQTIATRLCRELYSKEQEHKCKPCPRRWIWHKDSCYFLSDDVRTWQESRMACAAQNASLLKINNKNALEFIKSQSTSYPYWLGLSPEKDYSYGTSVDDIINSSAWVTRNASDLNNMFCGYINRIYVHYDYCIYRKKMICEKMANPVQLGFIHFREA
Experiment: flow cytometry, RMA-cCLEC12A cells

Compared with B1, B2 is lower in Cell Binding MFI: 1130 MFI for the first, 167 MFI for the second.

Biological target: hCLEC12A-His fusion protein (human) (UniProt Q5QGZ9)
Sequence (Q5QGZ9 65-265 limits assumed): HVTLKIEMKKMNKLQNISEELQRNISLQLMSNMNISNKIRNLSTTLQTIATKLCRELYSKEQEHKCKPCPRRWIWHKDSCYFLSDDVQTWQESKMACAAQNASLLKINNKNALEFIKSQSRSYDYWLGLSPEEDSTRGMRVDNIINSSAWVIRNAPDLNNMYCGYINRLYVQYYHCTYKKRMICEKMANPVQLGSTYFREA
Experiment: SPR 37 C, hybridoma supernatant

For B2, the Kd was 15.8 nM.

With B2 the koff was 0.00223 s⁻¹.

Biological target: human CLEC12A expressed on cells (human) (UniProt Q5QGZ9)
Sequence (Q5QGZ9 whole entry): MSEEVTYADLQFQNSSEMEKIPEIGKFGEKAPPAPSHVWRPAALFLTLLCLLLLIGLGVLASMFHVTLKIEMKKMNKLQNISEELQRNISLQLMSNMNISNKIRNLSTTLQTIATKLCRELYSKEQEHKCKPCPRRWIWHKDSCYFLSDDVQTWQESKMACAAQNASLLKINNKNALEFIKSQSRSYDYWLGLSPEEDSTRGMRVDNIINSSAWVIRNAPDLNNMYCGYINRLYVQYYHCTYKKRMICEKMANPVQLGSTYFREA
Experiment: flow cytometry on RMA-hCLEC12A cells

For B3, the EC50 (read off the curve) was 10 nM.

Biological target: hCLEC12A-His fusion protein (human) (UniProt Q5QGZ9)
Experiment: SPR, analyte glycosylated hCLEC12A

Work on B4 yielded a Kd of 0.96 nM.

B4 was tested, and the koff was 0.00111 s⁻¹.

B4 gave a kon of 1.15e+06 M⁻¹ s⁻¹.

Biological target: De-sialylated hCLEC12A (human) (UniProt Q5QGZ9)
Sequence (Q5QGZ9 65-265 limits assumed): as the sequence (Q5QGZ9 65-265 limits assumed) above
Experiment: SPR, analyte de-sialylated hCLEC12A

For B4, the Kd was 0.62 nM.

Binder B4 has a koff of 0.00098 s⁻¹.

With B4 the kon was 1.58e+06 M⁻¹ s⁻¹.

Biological target: human CLEC12A expressed on cells (human) (UniProt Q5QGZ9)
Experiment: flow cytometry, U937 cells

First: B1
Second: B2
The Cell Binding MFI of the first is lower: 44.1 MFI for the first, 83.8 MFI for the second.

Biological target: human CLEC12A expressed on cells (human) (UniProt Q5QGZ9)
Experiment: flow cytometry, RMA-hCLEC12A cells

Compared with B1, B2 is lower in Cell Binding MFI: 819 MFI for the first, 372 MFI for the second.

Biological target: hCLEC12A-His fusion protein (human) (UniProt Q5QGZ9)
Experiment: SPR (Biacore) 37 C

For B5, the Kd was 1.43 nM and 1.42 nM and 1.44 nM.

Biological target: human CLEC12A expressed on cells (human) (UniProt Q5QGZ9)
Experiment: flow cytometry, HL60 cells

First: B6
Second: B7
The EC50 of the first is 10-fold higher: 4.2 nM for the first, 0.4 nM for the second. The second is the more potent here.

B8 and B9 are within 1.5-fold of each other in EC50: 0.7 nM for the first, 0.5 nM for the second.

B10 and B11 are the same in EC50: 0.6 nM for the first, 0.6 nM for the second.

B12 was tested, and the EC50 was 0.7 nM.

B6 was tested, and the Max MFI was 6060 MFI.

First: B7
Second: B8
The Max binding MFI of the first is lower: 372 MFI for the first, 420 MFI for the second.

First: B9
Second: B10
The Max binding MFI of the first is lower: 412 MFI for the first, 420 MFI for the second.

First: B11
Second: B12
The Max binding MFI of the first is lower: 503 MFI for the first, 551 MFI for the second.

Biological target: hCLEC12A-His fusion protein (human) (UniProt Q5QGZ9)
Experiment: SPR screening, semi-purified protein

Compared with B13, B14 is 2.4-fold lower in Kd: 3.22 nM for the first, 1.34 nM for the second. The second binds more tightly here.

B5 and B15 are within 1.5-fold of each other in Kd: 2.94 nM for the first, 2.79 nM for the second.

Compared with B3, B16 is 1.9-fold higher in Kd: 2.7 nM for the first, 5.16 nM for the second. The first binds more tightly here.

B7 and B8 are within 1.5-fold of each other in Kd: 1.4 nM for the first, 1.21 nM for the second.

First: B9
Second: B17
The Kd of the first is 1.5-fold lower: 1.04 nM for the first, 1.58 nM for the second. The first binds more tightly here.

B10 and B11 are within 1.5-fold of each other in Kd: 1.73 nM for the first, 1.26 nM for the second.

B12 showed a Kd of 1.68 nM.

B13 and B14 are within 1.5-fold of each other in koff: 0.0013 s⁻¹ for the first, 0.00117 s⁻¹ for the second.

B5 and B15 are within 1.5-fold of each other in koff: 0.00153 s⁻¹ for the first, 0.00141 s⁻¹ for the second.

Going from B3 to B16, the koff rises from 0.0013 s⁻¹ to 0.0489 s⁻¹ (38-fold).

B7 and B8 are within 1.5-fold of each other in koff: 0.00101 s⁻¹ for the first, 0.00127 s⁻¹ for the second.

B9 and B17 are within 1.5-fold of each other in koff: 0.00117 s⁻¹ for the first, 0.000901 s⁻¹ for the second.

B10 and B11 are within 1.5-fold of each other in koff: 0.00126 s⁻¹ for the first, 0.00138 s⁻¹ for the second.

Binder B12 has a koff of 0.00129 s⁻¹.

First: B13
Second: B14
The kon of the first is 2.2-fold lower: 402000 M⁻¹ s⁻¹ for the first, 874000 M⁻¹ s⁻¹ for the second.

B5 and B15 are within 1.5-fold of each other in kon: 520000 M⁻¹ s⁻¹ for the first, 504000 M⁻¹ s⁻¹ for the second.

Going from B3 to B16, the kon rises from 480000 M⁻¹ s⁻¹ to 9.48e+06 M⁻¹ s⁻¹ (20-fold).

B7 and B8 are within 1.5-fold of each other in kon: 726000 M⁻¹ s⁻¹ for the first, 1.04e+06 M⁻¹ s⁻¹ for the second.

Going from B9 to B17, the kon falls from 1.12e+06 M⁻¹ s⁻¹ to 569000 M⁻¹ s⁻¹ (2-fold).

B10 and B11 are within 1.5-fold of each other in kon: 728000 M⁻¹ s⁻¹ for the first, 1.09e+06 M⁻¹ s⁻¹ for the second.

B12 showed a kon of 766000 M⁻¹ s⁻¹.

Biological target: De-glycosylated hCLEC12A (human) (UniProt Q5QGZ9)
Sequence (Q5QGZ9 65-265 limits assumed): as above
Experiment: SPR, analyte de-glycosylated hCLEC12A

B4 showed a Kd of 0.34 nM.

B4 showed a koff of 0.000374 s⁻¹.

For B4, the kon was 1.11e+06 M⁻¹ s⁻¹.

Biological target: human CLEC12A expressed on cells (human) (UniProt Q5QGZ9)
Experiment: flow cytometry, hCLEC12A+Ba/F3 cells

Going from B5 to B6, the EC50 falls from 26.1 nM to 6.13 nM (4.3-fold).

First: B7
Second: B8
The EC50 of the first is 1.9-fold lower: 0.7 nM for the first, 1.3 nM for the second. The first is the more potent here.

B9 and B10 are within 1.5-fold of each other in EC50: 0.7 nM for the first, 0.6 nM for the second.

B11 and B12 are within 1.5-fold of each other in EC50: 0.7 nM for the first, 0.6 nM for the second.

Going from B5 to B6, the Max MFI rises from 48000 MFI to 54800 MFI.

Going from B7 to B8, the Max binding MFI rises from 8020 MFI to 8760 MFI.

Compared with B9, B10 is lower in Max binding MFI: 8160 MFI for the first, 7940 MFI for the second.

First: B11
Second: B12
The Max binding MFI of the first is lower: 10200 MFI for the first, 10800 MFI for the second.

Biological target: hCLEC12A-His fusion protein (human) (UniProt Q5QGZ9)
Experiment: SPR (Biacore) 37 C, mean of 4

B5 showed a Kd of 1.43 nM.

With B5 the koff was 0.000594 s⁻¹.

B5 showed a kon of 415000 M⁻¹ s⁻¹.
